The target in this assay is T1, eukaryotic translation initiation factor 4E (eIF4E) (UniProt P06730 1-217).
T1 construct: eukaryotic translation initiation factor 4E; Expressed from a pET SUMO vector; The SUMO tag was cleaved with Ulp1 and removed on Ni-NTA; source: E. coli BL21-CodonPlus (DE3)-RIPL, purified (Ni-NTA, S75 gel filtration)
As to the kind of experiment: ITC; MicroCal ITC200; data collection as detailed in ref. 11; KD as mean and standard deviation of repeat samples (n = 3 for 5p-4E-BP2, n = 2 or 1 for the other variants). As to conditions: both partners purified. (In ITC the heat of successive injections is recorded.)

T1 sequence (P06730 whole entry): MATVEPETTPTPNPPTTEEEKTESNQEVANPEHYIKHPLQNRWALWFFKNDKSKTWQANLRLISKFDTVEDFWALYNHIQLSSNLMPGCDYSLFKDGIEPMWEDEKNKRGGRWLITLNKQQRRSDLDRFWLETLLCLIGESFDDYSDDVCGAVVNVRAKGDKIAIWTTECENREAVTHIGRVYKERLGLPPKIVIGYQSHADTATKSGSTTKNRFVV

B1: five-phospho 4E-BP2 (pT37/pT46/pS65/pT70/pS83) (natural protein, UniProt Q13542 1-120, looked up)
chain: MSSSAGSGHQPSQSRAIPTRTVAISDAAQLPHDYCTTPGGTLFSTTPGGTRIIYDRKFLLDRRNSPMAQTPPCHLPNIPGVTSPGTLIEDSKVEVNNLNNLNNHDRKHAVGDDAQFEMDI
modifications: phosphothreonine at 37, 46 and 70; phosphoserine at 65 and 83
notes: also called 5p-4E-BP2; WT 5p-4E-BP2; source: E. coli BL21-CodonPlus (DE3)-RIPL, purified (Ni-NTA, S75 gel filtration); phosphorylated with Erk2, purified again by gel filtration
Broadly, the Kd is the equilibrium constant for the complex coming apart. Molecule B1 registered a Kd of 15 µM.

The record behind these values is publication PMC7305185, “Non-cooperative 4E-BP2 folding with exchange between eIF4E-binding and binding-incompatible states tunes cap-dependent translation inhibition” (Nature Communications, 2020).
